Results on one molecule are retold here after patent US20170349646A1.

One may read the EC50 (read off the curve) as the concentration giving half of the maximal effect.

The assay deals with recombinant nucleoprotein derived from influenza virus subtype A H1N1 (Sino Biological, 40205-[change]) (influenza virus subtype A H1N1).

B1: VHH antibody consisting of the amino acid sequence represented by SEQ ID NO: 08 (VHH)
VHH: EVQLVESGGGLVQAGDSLRLSCAASGRTFINLDMGWFRQPPGKEREYVAAITRNGAITSYADSAKGRFTISRDNAKNTVSLEMNSLKPEDTGVYYCAAYSISNYGSGWYKPDYWGQGAQVTVSS
Regarding B1, the EC50 (read off the curve) is 0.2 µg/mL.
